Assay [1] concerns the target human CSF-1 receptor full-length ectodomain, domains D1-D5 (hCSF-1R_(D1-D5)) (human) (UniProt P07333). In words: SAXS.
The target is the same in assay [2]. The experiment in a line: field-flow fractionation.
Target sequence in this assay (P07333 20-517): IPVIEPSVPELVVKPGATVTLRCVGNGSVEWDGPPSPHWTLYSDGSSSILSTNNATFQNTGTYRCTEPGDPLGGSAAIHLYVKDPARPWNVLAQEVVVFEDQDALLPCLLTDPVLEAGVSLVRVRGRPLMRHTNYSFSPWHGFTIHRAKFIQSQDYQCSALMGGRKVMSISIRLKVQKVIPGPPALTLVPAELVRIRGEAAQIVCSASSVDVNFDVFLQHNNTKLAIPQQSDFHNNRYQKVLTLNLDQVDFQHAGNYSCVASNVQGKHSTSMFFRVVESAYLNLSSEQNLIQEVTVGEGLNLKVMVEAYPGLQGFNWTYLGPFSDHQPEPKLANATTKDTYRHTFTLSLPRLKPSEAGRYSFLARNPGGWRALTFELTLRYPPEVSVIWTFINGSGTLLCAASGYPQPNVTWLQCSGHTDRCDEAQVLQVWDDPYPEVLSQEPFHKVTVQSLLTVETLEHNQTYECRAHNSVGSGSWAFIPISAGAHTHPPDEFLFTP
The target in assay [3] is human Colony Stimulating Factor-1 (hCSF-1), residues 1-149 (human). The experiment in a line: field-flow fractionation.
In assay [4] the target is human CSF-1 receptor full-length ectodomain, domains D1-D5 (hCSF-1R_(D1-D5)) (human) (UniProt P07333). The experiment in a line: ITC. (ITC needs no label: the signal is the heat of the interaction.)
Target sequence in this assay (P07333 20-517): as above
Assay [5] has as its target mouse CSF-1 receptor full-length ectodomain, domains D1-D5 (mCSF-1R_(D1-D5)) (mouse) (UniProt P09581). The experiment in a line: ITC.
The target in assay [6] is mouse CSF-1 receptor, first three extracellular domains (mCSF-1R_(D1-D3)) (mouse) (UniProt P09581). In words: ITC.

The values below come from PMC3260422.

pKd: −log10 of the molar value.

As a reminder, the stoichiometry N is a count of units in the complex or per binding partner. One may read the pKd as the negative decadic logarithm of the Kd, by convention in mol/L.

Chain of mouse CSF-1 receptor full-length ectodomain, domains D1-D5 (mCSF-1R_(D1-D5)) (mouse) (P09581 20-515): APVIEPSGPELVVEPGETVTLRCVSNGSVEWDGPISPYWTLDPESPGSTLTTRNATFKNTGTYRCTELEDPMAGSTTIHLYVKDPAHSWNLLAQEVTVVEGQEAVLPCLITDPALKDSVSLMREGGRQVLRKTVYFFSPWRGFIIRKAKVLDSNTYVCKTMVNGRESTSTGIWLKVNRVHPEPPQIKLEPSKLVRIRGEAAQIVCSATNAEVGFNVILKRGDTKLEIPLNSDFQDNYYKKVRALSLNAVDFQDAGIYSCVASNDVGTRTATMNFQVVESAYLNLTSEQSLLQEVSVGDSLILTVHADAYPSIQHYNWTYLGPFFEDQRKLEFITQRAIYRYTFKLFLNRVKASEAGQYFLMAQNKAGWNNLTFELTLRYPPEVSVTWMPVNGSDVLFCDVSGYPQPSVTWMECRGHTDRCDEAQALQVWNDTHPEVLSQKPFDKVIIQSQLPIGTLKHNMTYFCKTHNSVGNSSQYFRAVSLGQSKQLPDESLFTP
Chain of mouse CSF-1 receptor, first three extracellular domains (mCSF-1R_(D1-D3)) (mouse) (P09581 20-298): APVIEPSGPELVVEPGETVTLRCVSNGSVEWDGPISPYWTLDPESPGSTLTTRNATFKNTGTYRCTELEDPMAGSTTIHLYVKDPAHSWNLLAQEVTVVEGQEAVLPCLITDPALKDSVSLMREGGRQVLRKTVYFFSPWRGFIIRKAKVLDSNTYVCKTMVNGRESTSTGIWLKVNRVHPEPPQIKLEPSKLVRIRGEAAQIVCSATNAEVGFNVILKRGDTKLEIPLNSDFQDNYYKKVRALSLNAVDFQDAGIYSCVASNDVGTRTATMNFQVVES

The substance “human CSF-1 receptor full-length ectodomain, domains D1-D5 (hCSF-1R_(D1-D5)) (from UniProt P07333 20-517)” showed a stoichiometry N in assay [1] of 2.

Consider “human Colony Stimulating Factor-1 (hCSF-1), residues 1-149 (ligand)”, for which the stoichiometry N (CSF-1 dimer per receptor) in assay [2], in assay [4] and in assay [5] was 0.5 throughout. The substance also gave a stoichiometry N in assay [3] of 2. Also, the negative logarithm of the Kd (pKd) was 7.87 in assay [4] and 7.18 in assay [5].

“mouse Colony Stimulating Factor-1 (mCSF-1), residues 1-149 (ligand)”: the results for the pKd in assay [4] and in assay [5] were 5.55 and 7.66, respectively. Moreover, the stoichiometry N (CSF-1 dimer per receptor) in assay [4], in assay [5] and in assay [6] was 0.5 throughout.
